Measurements as given in the supplement of paper PMC9170038.

Test system: MS2 coat protein
Assay: apparent KD of MS2 coat protein; designed switch direction (-1 OFF switch, 1 ON switch): -1; higher = weaker reporter binding
Summary of the method: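 The reported apparent KD is a per-design median over clusters, from curve fits of normalised cluster fluorescence. Protein titrations used SNAP-549-labelled MS2 coat protein, doubled from 0.7 or 1.5 nM to 3 µM, in Tris-HCl pH 7.5 buffer with KCl, MgCl2, BSA, DTT, tRNA and Tween-20, with no input, 200 uM small-molecule ligand, or an oligonucleotide input. The RNA switches were transcribed on Illumina chips by stalled E. coli RNA polymerase.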

[1] = input ligand: microRNA oligo, concentration not stated
[2] = Eterna round: R95, input ligand: FMN 200 uM
[3] = Eterna round: R95, input ligand: microRNA oligo, concentration not stated
[4] = Eterna round: R95, input ligand: none

Sequence | apparent KD of MS2 coat protein (input ligand: FMN 200 uM) | apparent KD of MS2 coat protein (input ligand: none) | apparent KD of MS2 coat protein [1] | apparent KD of MS2 coat protein [2] | apparent KD of MS2 coat protein [3] | apparent KD of MS2 coat protein [4]
UCAAUGCGAGGAUAUACGCACAAUUACAUGAGGAUCACCCAUGUCAUGAACUUUGGUAAGGUAGAAGGCGCUCCGU [Eternabot (L1) Solution 13] (Eterna round: R97, puzzle: Exclusion 5) | 0.0324 µM | 0.041 µM | – | – | – | –
AAUAACAAGCUGAUCCUGCACAUGAGGAUCACCCAUGUGCUCGUCUUGUAAAGUACUAUCACGAAAGUGAUAGUACA (Eterna round: R97, puzzle: Sensor, turn-off variant 1) | 0.0163 µM | 0.0212 µM | – | – | – | –
AUCAGCUCGUGAGGAUAUGAACAUGAGGAUCACCCAUGUAAGAUCAAGCUGCUUCGGCAGCAAGUUCAGAAGGUACGAGCUGAU [ENG2/10-C3] (Eterna round: R96, puzzle: Exclusion NG 2) | 0.197 µM | 0.139 µM | 0.0781 µM | – | – | –
CUAGUAUAUCAGGAUAUGAUAGUGUAUAGUAUAUCAGAAGGGAUGACAUGAGGAUCACCCAUGUUAAGGGAUGA [JR_Ex6_Sub050] (Eterna round: R97, puzzle: Exclusion 6) | 0.0524 µM | 0.0461 µM | – | – | – | –
AGCUGUGGCCGAGGAUAUCACAUGAGGAUCACCCAUGUAUAUGAUUAGGCCUGGUAACAGGCUCGUGAGAAGGCGGUCUCAGCA [Eli eng2 - 012] (Eterna round: R96, puzzle: Exclusion NG 2) | 0.0284 µM | 0.0313 µM | 0.0195 µM | – | – | –
GGAAGGCGAGGAUAUGCAAUAAUACACUCGAAGGAGUGAUAACAUGAGGAUCACCCAUGUAGAAGGCGCGAGAA [AK-MS2ROC-r4-exclusion2-6] (Eterna round: R97, puzzle: Exclusion 2) | 0.0361 µM | 0.0361 µM | – | – | – | –
UAUAUAUAGUAAGGAUAUGUAAUUAUUUUAUAAACAGAAGGUACUGACAUGAGGAUCACCCAUGUUUUAGUGUGGGCAUGUAGA [JMF's solution 5] (Eterna round: R96, puzzle: Exclusion NG 1) | – | – | 0.0657 µM | – | – | –
GAUUAUGCAAGCUUUUGGGACAUGAGGAUCACCCAUGUUCGUCUUAUUGAUCUAGGUACGCUGACGUACCUAGAUCU [JL-sv1-2.32 Brourd mod] (Eterna round: R96, puzzle: Sensor v3, turn-off variant 1) | 0.0148 µM | 0.0172 µM | 0.0521 µM | – | – | –
UUUAAUUUUUUUUUUUUACAAGCUUUUUGCUCGUCUUAUACAUGAGGAUCACCCAUGUAAGUGGGAGAUAAAUUAUC [JMF 21] (puzzle: Sensor v3, turn-off variant 2) | – | – | – | 0.0766 µM | 0.0533 µM | 0.0904 µM
GUCCUCAUGGCGCCUAAACACAUGAGGAUCACCCAUGUACAGGCUUUUUGCCGUCUUAUAAUAAAACCGAGGAUGCG [Reanaor] (puzzle: Sensor v3, turn-off variant 1) | – | – | – | 0.103 µM | 0.157 µM | 0.148 µM
UUGUUACAUGAGGAUCACCCAUGUGAGGAUAUGGUUAAGUAAUGUAAUGUAAAGUAAUCCAGAAGGCACAUGUU [1st #25] (Eterna round: R97, puzzle: Exclusion 1) | 0.353 µM | 0.196 µM | – | – | – | –
GGGUGUGAAGGAUAUACAUGAGGAUCACCCAUGUGAGAGGAGGAGGUUGAGGAGGUUGGUAGAAGGUCAGGAGG [JR_Exclusion3_Sub011] (Eterna round: R96, puzzle: Exclusion 3) | 0.219 µM | 0.22 µM | 0.149 µM | – | – | –
ACAAGCUUUUUCAUAUCUAACAUGAGGAUCACCCAUGUUUAAGCAAUUAUGUUUGGGCUCUUUUGAGCUCGUCUUAU [JR_STOV1_Sub047] (Eterna round: R97, puzzle: Sensor, turn-off variant 1) | 0.0138 µM | 0.0123 µM | – | – | – | –
UUAAUUAAUUAACGCAGCAAGAUCACAUGAGGAUCACCCAUGUAGGAUAUCAGCUCGAUUAGAGCUGAGAAGGACAUAGCUGCG [ExNG3/1-A1] (Eterna round: R96, puzzle: Exclusion NG 3) | 0.103 µM | 0.0175 µM | 0.0182 µM | – | – | –
UUAUACAAGCAAAGAUCCCACAUGAGGAUCACCCAUGUGCUCGUCUUAUAAGGAUCUGUGACGAAAGUCACGGAUCC [Mat - Sensor, turn-off var - Eli Mod - D101] (Eterna round: R97, puzzle: Sensor, turn-off variant 1) | 0.0433 µM | 0.0357 µM | – | – | – | –
GAAGUGCACAUGAGGAUCACCCAUGUGGGUGAGCCGUGCCUGAAGGAUAUGGCUCCCGAUGGAGACCAGAAGGUCAGUAAAUAA [Ededor] (Eterna round: R96, puzzle: Exclusion NG 3) | 0.367 µM | 1.03 µM | 0.276 µM | – | – | –
GAAAAGUGAGGAUAUUGUUUUUUUUUGAAAACGGGAGAGGGCAAGAAGGCACAUGAGGAUCACCCAUGUAAGGU [Alacar 2] (Eterna round: R97, puzzle: Exclusion 4) | 0.0664 µM | 0.0441 µM | – | – | – | –

Sequence | apparent KD of MS2 coat protein (input ligand: FMN 200 uM) | apparent KD of MS2 coat protein (input ligand: none) | apparent KD of MS2 coat protein [1] | apparent KD of MS2 coat protein [2] | apparent KD of MS2 coat protein [3] | apparent KD of MS2 coat protein [4]
AUAUUAAUAGUAAGGAUAUGCGUAUAUAUAAUUAUGCAGAAGGUACAUGAGGAUCACCCAUGUAUUAAUGUAUA [LRO-BmodExc4-01-Oppy's Opus] (Eterna round: R97, puzzle: Brourd's mod of Exclusion 4) | 0.0165 µM | 0.0156 µM | – | – | – | –
UUUUGACAAGCGAGAUCCUACAUGAGGAUCACCCAUGUUGACCAUGGUUUCCAUGGUCUUUUUGCUCGUCUUGUGUG [jl TITIN mod 4] (Eterna round: R97, puzzle: Sensor, turn-off variant 1) | 0.0215 µM | 0.0218 µM | – | – | – | –
CCGCAUAAGCAGGAUAUCGUAUCGGAGACGAUACGAGAAGGGUUAACAUGAGGAUCACCCAUGUUCCUUAACGG [Mat - Exclusion 6 - Eli Mod - D99] (puzzle: Exclusion 6) | – | – | – | 0.0197 µM | 0.0141 µM | 0.0181 µM
GUUGAUGUAGGAUAUACAUGAGGAUCACCCAUGUUGGUGCCCUAACCUAUUGGUGUACGUAGAAGGGCGGACUC [Eternabot (L2) Solution 96] (Eterna round: R97, puzzle: Exclusion 3) | 0.103 µM | 0.0952 µM | – | – | – | –
UACAUGAGGAUCACCCAUGUUUUGUCGUGUAUGGUACCCAUCUAGGAUAUCGUGUUAUUGGACCACGAGAAGGAGAGUAUCAAU [Excl-NG3-LRO01] (Eterna round: R96, puzzle: Exclusion NG 3) | 0.0192 µM | 0.0241 µM | 0.0181 µM | – | – | –
GAUUAAUGCAAGGAUAUGCUAUUAAUUUAUUUUGCAGAAGGUGCAACAUGAGGAUCACCCAUGUUGGAGGGUAU [JR_E6_Sub027] (Eterna round: R96, puzzle: Exclusion 6) | 0.0349 µM | 0.0251 µM | 0.0178 µM | – | – | –
UAAGAGUGAGGAUAUACGUCGCUGGUCCGGAUGGACGCAUGACAUGAGGAUCACCCAUGUAGAAGGCACAAAAC [Enxela] (puzzle: Exclusion 2) | – | – | – | – | 0.0268 µM | –
AACAGUCUGGAGGAUAUGCUGGAUAAAUAUCUGGCAGAAGGCUGGACAUGAGGAUCACCCAUGUAAAUACUACC [Omei Ex6 A2b] (Eterna round: R97, puzzle: Exclusion 6) | 0.0545 µM | 0.0249 µM | – | – | – | –
GCAGAAUGAGUUAGGAUAUGAUGAUUUUUCGGAAAUCAGAAGGAACUUGAGGAUCACCCAAGUUAAGAUAGGGU [JR_BMEx4_Sub065] (Eterna round: R97, puzzle: Brourd's mod of Exclusion 4) | 0.229 µM | 0.085 µM | – | – | – | –
UUACUACAUGUAGGAUAUGCGUGGCGAAGCUAUGCAGAAGGACAUGAGGAUCACCCAUGUUUUAGCGUCUGCGUACAGAUGCGU [JL ENG1 1.47] (Eterna round: R96, puzzle: Exclusion NG 1) | – | – | 0.0148 µM | – | – | –
GAAUAGCGAGGAUAUACAUGAGGAUCACCCAUGUGAUCCUUAGGCUGUUCAAGCCUAUGUAGAAGGCGCAAAUU [jl-ex3.4.56 ViennaUCT mod] (Eterna round: R97, puzzle: Exclusion 3) | 0.0862 µM | 0.335 µM | – | – | – | –
GGUUGGCGAGGAUAUACAUGAGGAUCACCCAUGUGAGAGAAAAAAGUGAGGAAGACAAGUAGAAGGCGCUGACG [salish99_ex3_r3_035] (puzzle: Exclusion 3) | – | – | – | 8.54 µM | 0.237 µM | 0.125 µM
UUGAUGUCAUCAGGAUAUAGUAUUUAAGACAUAUCUUCUUUCUUACAUGAGGAUCACCCAUGUCGCUAGAAGGGAUGAAUGAUU [JR_ExcNG2_Sub086] (Eterna round: R96, puzzle: Exclusion NG 2) | – | – | 0.0134 µM | – | – | –
UUAACAUUCGUCAGGAUAUUUGCUCGGUGUACGAGAGAGAAGGGACAUGAGGAUCACCCAUGUGACUUCAGCAA [Eternabot (Original) Solution 2] (Eterna round: R97, puzzle: Brourd's mod of Exclusion 4) | 0.0196 µM | 0.0151 µM | – | – | – | –
AGUUGUUGUUUCCGUUCUUACAUGAGGAUCACCCAUGUUUCUUGUCGUGCUCGCGUUGCUCGUCUGACUACCUGUUG [salish99_TOv1_r3_067] (puzzle: Sensor v3, turn-off variant 1) | – | – | – | 0.0525 µM | 0.0403 µM | 0.0681 µM
GGGUGUGAAGGAUAUACAUGAGGAUCACCCAUGUGAGAGGAGGAGGUUGAGGAGGUUGGUAGAAGGUCAGGAGG [JR_Exclusion3_Sub011] (puzzle: Exclusion 3) | – | – | – | – | 0.12 µM | –
